{"source": "paper PMC10739154", "about": "“Reinvestigation of Disulfide-bonded Oligomeric Forms of the Unfolded Protein Response Transducer ATF6” (Cell Structure and Function, 2019)", "molecules": {"B1": {"name": "ATF6α (endogenous, HCT116 cells) (natural protein, human (endogenous in HCT116), UniProt P18850 1-670, looked up)", "chain": "MGEPAGVAGTMESPFSPGLFHRLDEDWDSALFAELGYFTDTDELQLEAANETYENNFDNLDFDLDLMPWESDIWDINNQICTVKDIKAEPQPLSPASSSYSVSSPRSVDSYSSTQHVPEELDLSSSSQMSPLSLYGENSNSLSSAEPLKEDKPVTGPRNKTENGLTPKKKIQVNSKPSIQPKPLLLPAAPKTQTNSSVPAKTIIIQTVPTLMPLAKQQPIISLQPAPTKGQTVLLSQPTVVQLQAPGVLPSAQPVLAVAGGVTQLPNHVVNVVPAPSANSPVNGKLSVTKPVLQSTMRNVGSDIAVLRRQQRMIKNRESACQSRKKKKEYMLGLEARLKAALSENEQLKKENGTLKRQLDEVVSENQRLKVPSPKRRVVCVMIVLAFIILNYGPMSMLEQDSRRMNPSVSPANQRRHLLGFSAKEAQDTSDGIIQKNSYRYDHSVSNDKALMVLTEEPLLYIPPPPCQPLINTTESLRLNHELRGWVHRHEVERTKSRRMTNNQQKTRILQGALEQGSNSQLMAVQYTETTSSISRNSGSELQVYYASPRSYQDFFEAIRRRGDTFYVVSFRRDHLLLPATTHNKTTRPKMSIVLPAININENVINGQDYEVMMQIDCQVMDTRILHIKSSSVPPYLRDQQRNQTNTFFGSPPAATEATHVVSTIPESLQ", "notes": "ATF6α, endogenous in human colorectal carcinoma-derived HCT116 cells; also called pATF6α(P); source: endogenous, HCT116 WT cell lysate"}, "B2": {"name": "C467A mutant of ATF6α-TAP (natural protein, human, UniProt P18850 1-670, looked up)", "chain": "B1 chain with C467A", "notes": "ATF6α, human, full length, C467A; also called ATF6α(C467A)-TAP; source: HCT116 ATF6α/β-DKO cells, transfected, in lysate"}, "B3": {"name": "HA-ATF6α(WT) (natural protein, human, UniProt P18850 1-670, looked up)", "chain": "B1 chain", "notes": "ATF6α, human, full length; Plasmid from R. Prywes (Wang et al., 2000); also called HA-tagged WT; HA-tagged ATF6α WT; source: HCT116 ATF6α/β-DKO cells, transfected, in lysate; not shown: HA, N-terminal, kept"}, "B4": {"name": "EGFP-ATF6α(WT) (natural protein, human, UniProt P18850 1-670, looked up)", "chain": "B1 chain", "notes": "ATF6α, human, tagged with EGFP at the N-terminus; Constructed in previous studies (Nadanaka et al., 2007; 2004); source: HCT116 ATF6α/β-DKO cells, transfected, in lysate; not shown: EGFP, N-terminal, kept"}, "B5": {"name": "C618A mutant of ATF6α-TAP (natural protein, human, UniProt P18850 1-670, looked up)", "chain": "B1 chain with C618A", "notes": "ATF6α, human, full length, C618A; also called ATF6α(C618A)-TAP; source: HCT116 ATF6α/β-DKO cells, transfected, in lysate"}, "B6": {"name": "EGFP-ATF6α(C467A) (natural protein, human, UniProt P18850 1-670, looked up)", "chain": "B1 chain with C467A", "notes": "ATF6α, human, C467A, tagged with EGFP at the N-terminus; Constructed in previous studies (Nadanaka et al., 2007; 2004); source: HCT116 ATF6α/β-DKO cells, transfected, in lysate; not shown: EGFP, N-terminal, kept"}, "B7": {"name": "EGFP-ATF6α(C618A) (natural protein, human, UniProt P18850 1-670, looked up)", "chain": "B1 chain with C618A", "notes": "ATF6α, human, C618A, tagged with EGFP at the N-terminus; Constructed in previous studies (Nadanaka et al., 2007; 2004); source: HCT116 ATF6α/β-DKO cells, transfected, in lysate; not shown: EGFP, N-terminal, kept"}, "B8": {"name": "HA-ATF6α(C467A) (natural protein, human, UniProt P18850 1-670, looked up)", "chain": "B1 chain with C467A", "notes": "ATF6α, human, full length, C467A; Constructed in previous studies (Nadanaka et al., 2007; 2004); also called HA-tagged C467A mutant; source: HCT116 ATF6α/β-DKO cells, transfected, in lysate; not shown: HA, N-terminal, kept"}}, "key": {"[1]": {"target": "C618A mutant of ssATF6α(C)-TAP (human)", "experiment": "non-reducing SDS-PAGE with immunoblotting; ATF6α-TAP constructs of various lengths at the N-terminus in HCT116 DKO cells; lysates on non-reducing SDS-PAGE; blot with anti-Myc; shows disulfide-bonded forms"}, "[2]": {"target": "C618A mutant of ATF6α(Δ244)-TAP (human)", "experiment": "non-reducing SDS-PAGE with immunoblotting; ATF6α-TAP constructs of various lengths at the N-terminus in HCT116 DKO cells; lysates on non-reducing SDS-PAGE; blot with anti-Myc; shows disulfide-bonded forms"}, "[3]": {"target": "C618A mutant of ATF6α(Δ331)-TAP (human)", "experiment": "non-reducing SDS-PAGE with immunoblotting; ATF6α-TAP constructs of various lengths at the N-terminus in HCT116 DKO cells; lysates on non-reducing SDS-PAGE; blot with anti-Myc; shows disulfide-bonded forms"}, "[4]": {"target": "C467A mutant of ATF6α(Δ331)-TAP (human)", "experiment": "non-reducing SDS-PAGE with immunoblotting; ATF6α-TAP constructs of various lengths at the N-terminus in HCT116 DKO cells; lysates on non-reducing SDS-PAGE; blot with anti-Myc; shows disulfide-bonded forms"}, "[5]": {"target": "C467A mutant of ssATF6α(C)-TAP (human)", "experiment": "non-reducing SDS-PAGE with immunoblotting; ATF6α-TAP constructs of various lengths at the N-terminus in HCT116 DKO cells; lysates on non-reducing SDS-PAGE; blot with anti-Myc; shows disulfide-bonded forms"}, "[6]": {"target": "C618A mutant of ATF6α(Δ355)-TAP (human)", "experiment": "non-reducing SDS-PAGE with immunoblotting; ATF6α-TAP constructs of various lengths at the N-terminus in HCT116 DKO cells; lysates on non-reducing SDS-PAGE; blot with anti-Myc; shows disulfide-bonded forms"}, "[7]": {"target": "C467A mutant of ATF6α(Δ355)-TAP (human)", "experiment": "non-reducing SDS-PAGE with immunoblotting; ATF6α-TAP constructs of various lengths at the N-terminus in HCT116 DKO cells; lysates on non-reducing SDS-PAGE; blot with anti-Myc; shows disulfide-bonded forms"}, "[8]": {"target": "C467A mutant of ATF6α(Δ244)-TAP (human)", "experiment": "non-reducing SDS-PAGE with immunoblotting; ATF6α-TAP constructs of various lengths at the N-terminus in HCT116 DKO cells; lysates on non-reducing SDS-PAGE; blot with anti-Myc; shows disulfide-bonded forms"}, "[9]": {"target": "the molecule itself", "experiment": "non-reducing SDS-PAGE with immunoblotting; one form of ATF6α in the cells; lysis in 1% NP-40 buffer (50 mM Tris/HCl pH 7.5, 150 mM NaCl, 10 mM N-ethylmaleimide), boiled in SDS sample buffer without dithiothreitol; blot with anti-ATF6α; shows disulfide-bonded forms"}, "[10]": {"target": "the molecule itself", "experiment": "non-reducing SDS-PAGE with immunoblotting; ATF6α-TAP constructs of various lengths at the N-terminus in HCT116 DKO cells; lysates on non-reducing SDS-PAGE; blot with anti-Myc; shows disulfide-bonded forms"}}, "note": "Where a chain is given by its changes, count along the chain named. In names and notes the source's numbering stands.", "data": [{"molecule": "C618A mutant of ssATF6α(C)-TAP (domain or fragment)", "values": [{"measurement": "stoichiometry N", "setting": "[1]", "value": 2}]}, {"molecule": "C618A mutant of ATF6α(Δ244)-TAP (domain or fragment)", "values": [{"measurement": "stoichiometry N", "setting": "[2]", "value": 2}]}, {"molecule": "C618A mutant of ATF6α(Δ331)-TAP (domain or fragment)", "values": [{"measurement": "stoichiometry N", "setting": "[3]", "value": 2}]}, {"molecule": "C467A mutant of ATF6α(Δ331)-TAP (domain or fragment)", "values": [{"measurement": "stoichiometry N", "setting": "[4]", "value": 2}]}, {"molecule": "C467A mutant of ssATF6α(C)-TAP (domain or fragment)", "values": [{"measurement": "stoichiometry N", "setting": "[5]", "value": 2}]}, {"molecule": "C618A mutant of ATF6α(Δ355)-TAP (domain or fragment)", "values": [{"measurement": "stoichiometry N", "setting": "[6]", "value": 2}]}, {"molecule": "C467A mutant of ATF6α(Δ355)-TAP (domain or fragment)", "values": [{"measurement": "stoichiometry N", "setting": "[7]", "value": 2}]}, {"molecule": "C467A mutant of ATF6α(Δ244)-TAP (domain or fragment)", "values": [{"measurement": "stoichiometry N", "setting": "[8]", "value": 2}]}, {"molecule": "B1", "values": [{"measurement": "stoichiometry N", "setting": "[9]", "value": 2}]}, {"molecule": "B2", "values": [{"measurement": "stoichiometry N", "setting": "[10]", "value": 2}]}, {"molecule": "B3", "values": [{"measurement": "stoichiometry N", "setting": "[9]", "value": 2}]}, {"molecule": "B4", "values": [{"measurement": "stoichiometry N", "setting": "[9]", "value": 2}]}, {"molecule": "B5", "values": [{"measurement": "stoichiometry N", "setting": "[10]", "value": 2}]}, {"molecule": "B6", "values": [{"measurement": "stoichiometry N", "setting": "[9]", "value": 2}]}, {"molecule": "B7", "values": [{"measurement": "stoichiometry N", "setting": "[9]", "value": 2}]}, {"molecule": "B8", "values": [{"measurement": "stoichiometry N", "setting": "[9]", "value": 2}]}]}
